Experimental data from IntAct's records for PubMed 22416126.

B1: Non-POU domain-containing octamer-binding protein (Homo sapiens), Q15233 (parent)
chain: MQSNKTFNLEKQNHTPRKHHQHHHQQQHHQQQQQQPPPPPIPANGQQASSQNEGLTIDLKNFRKPGEKTFTQRSRLFVGNLPPDITEEEMRKLFEKYGKAGEVFIHKDKGFGFIRLETRTLAEIAKVELDNMPLRGKQLRVRFACHSASLTVRNLPQYVSNELLEEAFSVFGQVERAVVIVDDRGRPSGKGIVEFSGKPAARKALDRCSEGSFLLTTFPRPVTVEPMDQLDDEEGLPEKLVIKNQQFHKEREQPPRFAQPGSFEYEYAMRWKALIEMEKQQQDQVDRNIKEAREKLEMEMEAARHEHQVMLMRQDLMRRQEELRRMEELHNQEVQKRKQLELRQEEERRRREEEMRRQQEEMMRRQQEGFKGTFPDAREQEIRMGQMAMGGAMGINNRGAMPPAPVPAGTPAPPGPATMMPDGTLGLTPPTTERFGQAATMEGIGAIGGTPPAFNRAAPGAEFAPNKRRRY
partner: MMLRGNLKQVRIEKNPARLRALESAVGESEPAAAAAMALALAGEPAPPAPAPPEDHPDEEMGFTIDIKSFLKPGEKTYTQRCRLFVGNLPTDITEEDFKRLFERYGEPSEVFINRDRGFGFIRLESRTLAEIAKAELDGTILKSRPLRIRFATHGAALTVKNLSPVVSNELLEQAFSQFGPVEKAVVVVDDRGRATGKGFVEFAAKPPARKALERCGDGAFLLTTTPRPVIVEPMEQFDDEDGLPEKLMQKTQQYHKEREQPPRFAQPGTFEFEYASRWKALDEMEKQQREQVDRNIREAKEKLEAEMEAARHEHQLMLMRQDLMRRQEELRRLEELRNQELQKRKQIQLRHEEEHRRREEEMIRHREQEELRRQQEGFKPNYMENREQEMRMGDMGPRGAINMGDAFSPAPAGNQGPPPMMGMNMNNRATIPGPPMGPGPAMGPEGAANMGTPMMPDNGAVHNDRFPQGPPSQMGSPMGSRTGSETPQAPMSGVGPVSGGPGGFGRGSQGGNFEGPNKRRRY
B2: Paraspeckle component 1 (Homo sapiens), Q8WXF1-1 (parent)
chain: B1 partner
partner: B1 chain

Variants of: B1
Conditions: with PSPC1, Q8WXF1-1
In the case of MQSNKTFNLEKQNHTPRKHHQHHHQQQHHQQQQQQPPPPPIPANGQQASSQNEGLTIDLKNFRKPGEKTFTQRSRLFVGNLPPDITEEEMRKLFEKYGKAGEVFIHKDKGFGFIRLETRTLAEIAKVELDNMPLRGKQLRVRFACHSASLTVRNLPQYVSNELLEEAFSVFGQVERAVVIVDDRGRPSGKGIVEFSGKPAARKALDRCSEGSFLLTTFPRPVTVEPMDQLDDEEGLPEKLVIKNQQFHKEREQPPRFAQPGSFEYEAAMRAKALIEMEKQQQDQVDRNIKEAREKLEMEMEAARHEHQVMLMRQDLMRRQEELRRMEELHNQEVQKRKQLELRQEEERRRREEEMRRQQEEMMRRQQEGFKGTFPDAREQEIRMGQMAMGGAMGINNRGAMPPAPVPAGTPAPPGPATMMPDGTLGLTPPTTERFGQAATMEGIGAIGGTPPAFNRAAPGAEFAPNKRRRY [Y267A;W271A], the “effect of a mutation on the interaction” value is reported as “decreasing interaction strength”.

Variants of: B2
Conditions: with nono_human NONO
MMLRGNLKQVRIEKNPARLRALESAVGESEPAAAAAMALALAGEPAPPAPAPPEDHPDEEMGFTIDIKSFLKPGEKTYTQRCRLFVGNLPTDITEEDFKRLFERYGEPSEVFINRDRGFGFIRLESRTLAEIAKAELDGTILKSRPLRIRFATHGAALTVKNLSPVVSNELLEQAFSQFGPVEKAVVVVDDRGRATGKGFVEFAAKPPARKALERCGDGAFLLTTTPRPVIVEPMEQFDDEDGLPEKLMQKTQQYHKEREQPPRFAQPGTFEFEAASRAKALDEMEKQQREQVDRNIREAKEKLEAEMEAARHEHQLMLMRQDLMRRQEELRRLEELRNQELQKRKQIQLRHEEEHRRREEEMIRHREQEELRRQQEGFKPNYMENREQEMRMGDMGPRGAINMGDAFSPAPAGNQGPPPMMGMNMNNRATIPGPPMGPGPAMGPEGAANMGTPMMPDNGAVHNDRFPQGPPSQMGSPMGSRTGSETPQAPMSGVGPVSGGPGGFGRGSQGGNFEGPNKRRRY [Y275A;W279A] was tested, and the “effect of a mutation on the interaction” value was “decreasing interaction strength”.
